Measured values published in publication doi:10.1101/2023.12.15.571945.

Biological target: GFP-Rab13-2 (N. benthamiana)
Assay: co-IP

REP-3xFLAG (Rab escort protein 1) (natural protein)
level of binding (α-FLAG/α-GFP) with RFP-Pc12 expressed: 1.3
